Laboratory results: article PMC3985851 (Biochemistry, 2014)

B1: KD1_(L17R)-VT (Kunitz domain 1 of tissue factor pathway inhibitor-2, Leu17Arg, with C-terminal valine) (domain or fragment, human)
chain: GSHMDAAQEPTGNNAEICLLPLDYGPCRARLLRYYYDRYTQSCRQFLYGGCEGNANNFYTWEACDDACWRIEKVPKV
B2: KD1_(L17R)-KT (Kunitz domain 1 of tissue factor pathway inhibitor-2, Leu17Arg, with C-terminal lysine) (domain or fragment, human, UniProt P48307 30-94, looked up)
chain: GNNAEICLLPLDYGPCRARLLRYYYDRYTQSCRQFLYGGCEGNANNFYTWEACDDACWRIEKVPK

Columns and labels:
[1] = molecular target: micro(μ)-plasmin (human, UniProt P00747 561-580; P00747 581-810); assay: SEC
[2] = molecular target: Glu-plasminogen; assay: SPR
[3] = molecular target: tissue plasminogen activator (tPA, Alteplase); assay: SPR

Glu-plasminogen, sequence (P00747 20-810): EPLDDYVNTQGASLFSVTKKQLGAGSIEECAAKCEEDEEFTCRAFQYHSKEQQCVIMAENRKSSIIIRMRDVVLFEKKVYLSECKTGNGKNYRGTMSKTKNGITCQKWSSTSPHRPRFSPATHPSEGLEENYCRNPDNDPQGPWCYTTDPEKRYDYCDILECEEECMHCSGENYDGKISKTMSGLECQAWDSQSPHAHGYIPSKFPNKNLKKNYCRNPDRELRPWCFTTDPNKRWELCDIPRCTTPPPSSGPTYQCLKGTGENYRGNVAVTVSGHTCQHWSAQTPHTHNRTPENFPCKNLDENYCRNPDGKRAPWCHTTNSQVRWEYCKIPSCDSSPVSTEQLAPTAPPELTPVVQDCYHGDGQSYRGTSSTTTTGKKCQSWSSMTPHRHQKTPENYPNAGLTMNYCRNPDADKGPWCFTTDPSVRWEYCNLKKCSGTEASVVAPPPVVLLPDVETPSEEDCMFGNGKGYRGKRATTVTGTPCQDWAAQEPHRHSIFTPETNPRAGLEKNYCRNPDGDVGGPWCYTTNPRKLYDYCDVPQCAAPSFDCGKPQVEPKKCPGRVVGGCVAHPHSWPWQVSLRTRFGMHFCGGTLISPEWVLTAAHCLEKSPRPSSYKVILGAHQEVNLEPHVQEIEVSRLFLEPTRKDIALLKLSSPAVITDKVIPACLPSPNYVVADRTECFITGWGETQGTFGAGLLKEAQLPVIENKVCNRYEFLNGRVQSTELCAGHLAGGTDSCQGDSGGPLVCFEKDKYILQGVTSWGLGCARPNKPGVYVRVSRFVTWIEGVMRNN
micro(μ)-plasmin, sequence (P00747 561-580, chain 1 of 2): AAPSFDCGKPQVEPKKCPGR
micro(μ)-plasmin, sequence (P00747 581-810, chain 2 of 2): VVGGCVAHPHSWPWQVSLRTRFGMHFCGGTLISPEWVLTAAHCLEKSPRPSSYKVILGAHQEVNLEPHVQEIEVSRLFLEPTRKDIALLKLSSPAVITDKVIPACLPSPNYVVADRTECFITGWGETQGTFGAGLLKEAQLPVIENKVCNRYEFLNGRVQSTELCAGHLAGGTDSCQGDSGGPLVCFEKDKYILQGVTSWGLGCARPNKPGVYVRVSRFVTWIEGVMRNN

| Binder | binding result [1] | RU at 1 μM analyte [2] | Kd [3] | RU at 1 μM analyte [3] | koff [3] | kon [3] | Kd [2] | koff [2] | kon [2] |
| --- | --- | --- | --- | --- | --- | --- | --- | --- | --- |
| B1 | binds | 12 RU | – | – | – | – | – | – | – |
| B2 | binds | 86 RU | 210 nM | 155 RU | 0.00019 s⁻¹ | 910 M⁻¹ s⁻¹ | 280 nM | 0.00031 s⁻¹ | 1100 M⁻¹ s⁻¹ |
